Reference: US20240374745A1

Key:
CTLA-4-hFc = assay: BLI, immobilized CTLA-4-hFc; untreated sample before LRP1 depletion
PD-1-hFc (human) = assay: BLI, immobilized PD-1-hFc; untreated sample before LRP1 depletion
Sequence of PD-1-hFc (human) (chain, as listed by the source limits assumed): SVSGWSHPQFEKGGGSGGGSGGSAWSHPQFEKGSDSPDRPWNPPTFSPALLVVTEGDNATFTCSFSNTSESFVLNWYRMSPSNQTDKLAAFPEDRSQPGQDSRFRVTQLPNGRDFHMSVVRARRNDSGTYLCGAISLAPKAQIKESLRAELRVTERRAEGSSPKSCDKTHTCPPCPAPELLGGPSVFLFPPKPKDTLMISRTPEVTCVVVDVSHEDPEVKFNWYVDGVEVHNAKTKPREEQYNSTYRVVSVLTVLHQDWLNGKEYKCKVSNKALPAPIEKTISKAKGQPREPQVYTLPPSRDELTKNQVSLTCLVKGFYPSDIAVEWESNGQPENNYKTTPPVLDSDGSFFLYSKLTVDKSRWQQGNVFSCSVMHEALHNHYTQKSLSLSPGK

Sequence of CTLA-4-hFc (chain, as listed by the source limits assumed): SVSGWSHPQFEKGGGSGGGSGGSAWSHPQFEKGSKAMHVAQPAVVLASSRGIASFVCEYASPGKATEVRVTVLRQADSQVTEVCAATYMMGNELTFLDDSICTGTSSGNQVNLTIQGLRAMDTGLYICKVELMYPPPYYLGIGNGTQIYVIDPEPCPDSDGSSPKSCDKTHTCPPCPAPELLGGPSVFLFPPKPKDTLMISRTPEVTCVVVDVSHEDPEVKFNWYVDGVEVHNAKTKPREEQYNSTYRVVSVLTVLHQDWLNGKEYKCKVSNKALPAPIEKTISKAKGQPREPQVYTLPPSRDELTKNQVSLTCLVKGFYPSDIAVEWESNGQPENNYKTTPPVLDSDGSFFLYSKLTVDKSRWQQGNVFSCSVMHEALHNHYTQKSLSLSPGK

| Substance | percent of the maximum binding defined by thermolysin activation (CTLA-4-hFc) [%] | percent of the maximum binding defined by thermolysin activation (PD-1-hFc (human)) [%] |
| --- | --- | --- |
| A2M-Ipilimumab, untreated (native conformation) | 25 |  |
| A2M-Nivolumab, untreated (native conformation) |  | 25 |
